Experimental data reported in patent US20060193821, “Aptamers to the human IL-12 cytokine family and their use as autoimmune disease therapeutics” (published 2006).

B1: ARC1468 (mixed)
RNA: GGCAAGUAAUUGGGGAGUGCGGGCGGGG
modifications: dRmY; 3'-idT
B2: ARC1469 (mixed)
RNA: GGCAAGUAAUUGGGGAGUGCGGGCGGGG
modifications: dRmY; 2'-OMe at two As and one G as printed in Table 29; 3'-idT
B3: ARC1626 (mixed)
RNA: ACAGGCAAGUAAUUGGGGAGUGCGGGCGGGGUGU
modifications: ARC1544 sugars; PS at 17 linkages 5' of deoxy residues as printed in Table 29; 3'-idT [PS at 2-3, 3-4, 4-5, 6-7, 7-8, 8-9, 10-11, 11-12, 14-15, 17-18, 18-19, 19-20, 21-22, 25-26, 27-28, 28-29, 32-33; ARC1544 sugars (2'-deoxy/2'-OMe); 3'-inverted dT at 35]
B4: ARC1623 (mixed)
RNA: B3 RNA
modifications: dAmCdAdGdGmCdAdAdGmUdAdAmUmUdGmGmG-s-dG-s-dA-s-dGmU-s-dGmCmGmGdGmCdGdGmGmGmUdGmU-3T (d deoxy, m 2'-OMe, s PS, 3T idT) [PS at 17-18, 18-19, 19-20, 21-22; 2'-OMe at 2,6,10,13,14,16,17,21,23,24,25,27,30,31,32,34; 2'-deoxy at other nt 1-33; 3'-inverted dT at 35]
B5: ARC1624 (mixed)
RNA: B3 RNA
modifications: dAmCdAdGdGmCdAdAdGmUdAdAmUmUdGmGmGdGdAdGmUdGmCmGmG-s-dGmC-s-dG-s-dGmGmGmUdGmU-3T (d deoxy, m 2'-OMe, s PS, 3T idT) [PS at 25-26, 27-28, 28-29; 2'-OMe at 2,6,10,13,14,16,17,21,23,24,25,27,30,31,32,34; 2'-deoxy at other nt 1-33; 3'-inverted dT at 35]
B6: ARC1756 (mixed)
RNA: B3 RNA
modifications: mAmC-s-dAdGdGmC-s-dAmAmGmUmA-s-dAmUmU-s-dGmGmG-s-dG-s-dA-s-dGmU-s-dGmCmGmGmGmCmGmGmGmGmUmGmU-3T (d deoxy, m 2'-OMe, s PS, 3T idT) [PS at 2-3, 6-7, 11-12, 14-15, 17-18, 18-19, 19-20, 21-22; 2'-deoxy at 3,4,5,7,12,15,18,19,20,22; 2'-OMe at other nt 1-34; 3'-inverted dT at 35]
B7: ARC1625 (mixed)
RNA: B3 RNA
modifications: dAmCdAdGdGmCdAdAdGmUdAdAmUmUdGmGmGdGdAdGmUdGmCmGmGdGmCdGdGmGmGmU-s-dGmU-3T (d deoxy, m 2'-OMe, s PS, 3T idT) [PS at 32-33; 2'-OMe at 2,6,10,13,14,16,17,21,23,24,25,27,30,31,32,34; 2'-deoxy at other nt 1-33; 3'-inverted dT at 35]
B8: ARC1544 (mixed)
RNA: B3 RNA
modifications: dRmY with 2'-OMe at G16, G17, G23, G24, G29, G30; 3'-idT
B9: ARC1436 (mixed)
RNA: B3 RNA
modifications: dRmY; 2'-OMe G15; 3'-idT
B10: ARC1431 (mixed)
RNA: B3 RNA
modifications: dRmY; 2'-OMe A7; 3'-idT
B11: ARC1386 (mixed)
RNA: B3 RNA
modifications: dRmY; 3'-idT
B12: AMX86-A10 (ssRNA)
RNA: GGGAAAAGCGAAUCAUACACAAGAGUAAUGUGGGUCCCGAUGAUUCGCUGUGCGGCGUUUGUAGCUCCGCCAGAGACCAACCGAGAA
modifications: 2'-F C,U
B13: AMX86-E10 (ssRNA)
RNA: GGGAAAAGCGAAUCAUACACAAGAUUGUCUCGGAUUGGUCACUCCCAUUUUUGUUCGCUUAACGGCUCCGCCAGAGACCAACCGAGAA
modifications: 2'-F C,U
B14: AMX86-F12 (ssRNA)
RNA: GGGAAAAGCGAAUCAUACACAAGAGUGUUGAAUGAGCGCUGGUGGACAGAUCUUUGGUUACAGAGCUCCGCCAGAGACCAACCGAGAA
modifications: 2'-F C,U
B15: AMX86-A7 (ssRNA)
RNA: GGGAAAAGCGAAUCAUACACAAGAUCUCUUUGGCCGACGCAACAAUGCUCUUUUCCGACCUUGCGCUCCGCCAGAGACCAACCGAGAA
modifications: 2'-F C,U
B16: AMX91-H8 (ssRNA)
RNA: GGGAAAAGCGAAUCAUACACAAGAACGCAUAGUCGGAUUUACCGAUCAUUCUGUGCCUUCGUGACGCUCCGCCAGAGACCAACCGAGAA
modifications: 2'-F C,U
B17: AMX86-F11 (ssRNA)
RNA: GGGAAAAGCGAAUCAUACACAAGACCAUCGGACGAGGCGGGUCACCUUUUACGCUUUCGAGCUGGCUCCGCCAGAGACCAACCGAGAA
modifications: 2'-F C,U
B18: AMX86-B10 (ssRNA)
RNA: GGGAAAAGCGAAUCAUACACAAGAGAACGAGUAUAUUUGCGCUGGCGGAGAAGUCUCUCGAAGGGAGCUCCGCCAGAGACCAACCGAGAA
modifications: 2'-F C,U
B19: AMX86-H9 (ssRNA)
RNA: GGGAAAAGCGAAUCAUACACAAGAUGGUUCCCACGUGAAAGUGGCUAGCGAGUACCCCACUUAUGCUCCGCCAGAGACCAACCAAGGG
modifications: 2'-F C,U
B20: AMX86-A11 (ssRNA)
RNA: GGGAAAAGCGAAUCAUACACAAGAACGGCUAGGCAUCAAUGGCCAGCAAAAAUAGUCGUGUAAUGCUCCGCCAGAGACCAACCGAGAA
modifications: 2'-F C,U
B21: AMX86-C5 (ssRNA)
RNA: GGGAAAAGCGAAUCAUACACAAGAGUUUUAUGUGGGUCCCGAUGAUUAACUUUAUUGGCGCAUUGCUCCGCCAGAGACCAACCGAGAA
modifications: 2'-F C,U
B22: AMX86-C9 (ssRNA)
RNA: GGGAAAAGCGAAUCAUACACAAGACUCAUGGAUAUGGCCUAGCAGCCGUGGAAGCGGUCAUUCUGCUCCGCCAGAGACCAACCGAGAA
modifications: 2'-F C,U
B23: AMX86-B11 (ssRNA)
RNA: GGGAAAAGCGAAUCAUACACAAGAGUAUCAUUCGGCUGGUGGGAGAAAUCUCUGUAGAUAUAGAGCUCCGCCAGAGACCAACCGAGAA
modifications: 2'-F C,U
B24: AMX86-B7 (ssRNA)
RNA: GGGAAAAGCGAAUCAUACACAAGAAUGAAUUCCGUCCACGGGCGCCCGAUGAUGUCAGUUUUCGGCUCCGCCAGAGACCAACCGAGAA
modifications: 2'-F C,U
B25: ARC897 (mixed)
RNA: GAUGUUGGCAAGUAAUUGGGGAGUGCGGGCGGGGUUCAUC
modifications: deoxy A,G; 2'-OMe C,U; 3'-idT
B26: ARC796 (mixed)
RNA: UAAUUGGGGAGUGCGGGCGGGGGGUCGAUCG
modifications: deoxy A,G; 2'-OMe C,U
B27: ARC797 (mixed)
RNA: GGUGGGGAGUGCGGGCGGGGGGUCGCC
modifications: deoxy A,G; 2'-OMe C,U

The binders below were run against T1, IL-23 (human, p19/p40 heterodimer) (Homo sapiens, UniProt Q9NPF7;P29460 SEQ:20-189,SEQ:23-328) (assay: filter; dot blot; DPBS with Ca and Mg, 0.1 mg/mL BSA, 30 min RT). Conditions: tags: R&D Systems, carrier free; label: 5'-32P.
Experimental: The dot blot binding assay previously described was used to characterize the relative potency of the majority of the aptamers synthesized. For KD determination, chemically synthesized aptamers were purified using denaturing polyacrylamide gel electrophoresis, 5′end labeled with γ-³²P ATP and were tested for direct binding to full human IL-23. An 8 point protein titration was used in the dot blot binding assay (either {100 nM, 30 nM, 10 nM, 3 nM, 1 nM, 300 pM, 100 pM, 0 pM} or {10 nM, 3 nM, 1 nM, 300 pM, 100 pM, 30 pM, 10 pM, 0 pM}) in Dulbecco's PBS (with Mg⁺⁺ and Ca⁺⁺) with 0.1 mg/mL BSA. KD values were calculated by fitting the equation y=(max/(1+K/protein))+yint using KaleidaGraph (KaleidaGraph v. 3.51, Synergy Software). Sequences of the ARC979 derivatives synthesized, purified and assayed for binding to IL-23 as well as the results of the protein binding characterization are tabulated below in Tables 29 and 30.

T1 sequence (Q9NPF7 20-189, chain 1 of 2): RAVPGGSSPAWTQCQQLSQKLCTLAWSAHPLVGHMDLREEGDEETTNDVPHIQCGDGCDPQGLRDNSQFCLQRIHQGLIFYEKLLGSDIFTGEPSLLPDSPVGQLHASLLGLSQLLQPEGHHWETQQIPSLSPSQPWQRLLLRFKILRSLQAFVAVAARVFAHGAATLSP
T1 sequence (P29460 23-328, chain 2 of 2): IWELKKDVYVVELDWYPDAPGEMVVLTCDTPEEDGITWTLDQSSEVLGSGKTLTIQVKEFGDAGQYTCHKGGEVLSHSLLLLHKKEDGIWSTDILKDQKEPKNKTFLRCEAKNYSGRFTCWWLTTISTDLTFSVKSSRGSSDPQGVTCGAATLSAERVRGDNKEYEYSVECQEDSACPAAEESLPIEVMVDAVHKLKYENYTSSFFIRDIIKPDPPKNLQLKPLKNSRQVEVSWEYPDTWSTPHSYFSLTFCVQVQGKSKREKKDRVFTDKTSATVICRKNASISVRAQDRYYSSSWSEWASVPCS

Binder	Kd
B1	10 nM
B2	49.8 nM
B3	0.1 nM
B4	0.2 nM
B5	0.4 nM
B6	0.5 nM
B7	0.4 nM
B8	0.9 nM
B9	15.1 nM
B10	10 nM

Same assay, conditions: tags: R&D Systems, carrier free; label: 5'-32P; G4 (predicted)

Binder	Kd
B11	1 nM

Each binder was assayed against IL-12 (human, p35/p40 heterodimer) (Homo sapiens, UniProt P29459;P29460 SEQ:57-253,SEQ:23-328) (assay: filter; tRNA). Conditions: not given.
Experimental: Monitoring Progress of rRfY Selection. Dot blot binding assays were performed throughout the selections to monitor the protein binding affinity of the pools. Trace ³²P-labeled RNA was combined with a dilution series of h-IL-23 and incubated at room temperature for 30 minutes in 1×SHMCK (20 mM Hepes, 120 mM NaCl, 5 mM KCl, 1 mM MgCl₂, 1 mM CaCl₂, pH 7.4) plus 0.1 mg/mL tRNA for a final volume of 20 μL. The binding reactions were analyzed by nitrocellulose filtration using a Minifold I dot-blot, 96-well vacuum filtration manifold (Schleicher & Schuell, Keene, N.H.). A three-layer filtration medium was used, consisting (from top to bottom) of Protran nitrocellulose (Schleicher & Schuell), Hybond-P nylon (Amersham Biosciences) and GB002 gel blot paper (Schleicher & Schuell). RNA that is bound to protein is captured on the nitrocellulose filter, whereas the non-protein bound RNA is captured on the nylon filter. The gel blot paper was included simply as a supporting medium for the other filters. Following filtration, the filter layers were separated, dried and exposed on a phosphor screen (Amersham Biosciences, Piscataway, N.J.) and quantified using a Storm 860 Phosphorimager® blot imaging system (Amersham Biosciences).
When a significant positive ratio of binding of RNA in the presence of h-IL-23 versus in the absence of h-IL-23 was seen, the pools were cloned using a TOPO TA cloning kit (Invitrogen, Carlsbad, Calif.) according to the manufacturer's instructions. For the h-IL-23 and X-IL-23 selections, the Round 8 pool templates were cloned, and 32 individual clones from each selections were assayed in a 1-point dot blot screen (+/−75 nM h-IL-23, as well as a separate screen at +/−75 nM h-IL-12). For the PN-IL-23 selection, the Round 10 pool was cloned and sequenced, and 8 unique clones were assayed for protein binding in a 1-point dot blot screen (+/−200 nM h-IL-23 and a separate screen at +/−200 nM h-IL-12). Subsequently, the Round 10 PN-IL-23 pool was re-cloned for further sequences, as well as the R12 PN-IL-23 pool, and the clones were assayed for protein binding in a 1 point do blot screen (+/−100 nM h-IL-23 or +/−200 nM h-IL-12).

Sequence of IL-12 (human, p35/p40 heterodimer) (P29459 23-219, chain 1 of 2): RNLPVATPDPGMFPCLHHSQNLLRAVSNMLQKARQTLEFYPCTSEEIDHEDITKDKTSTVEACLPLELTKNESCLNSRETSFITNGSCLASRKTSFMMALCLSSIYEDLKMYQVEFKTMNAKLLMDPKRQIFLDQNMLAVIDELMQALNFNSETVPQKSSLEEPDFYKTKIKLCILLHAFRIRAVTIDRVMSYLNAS
Sequence of IL-12 (human, p35/p40 heterodimer) (P29460 23-328, chain 2 of 2): as the sequence (P29460 23-328, chain 2 of 2) above

Binder	Kd
B12	289 nM
B13	905 nM
B14	2910 nM
B15	668 nM
B16	243 nM
B17	541 nM
B18	1040 nM
B19	332 nM
B20	182 nM
B21	400 nM
B22	673 nM
B23	5950 nM
B24	934 nM

Each binder was assayed against T1, IL-23 (human, p19/p40 heterodimer) (assay: cell_activity; TransAM STAT3). Conditions: tags: R&D Systems, carrier free.
Experimental: In summary, the cell-based assay was conducted by isolating the peripheral blood mononuclear cells (PBMCs) from whole blood using a Histopaque gradient (Sigma, St. Louis, Mo.). The PBMCs were cultured for 3 to 5 days at 37° C./5% CO₂ in Peripheral Blood Medium (Sigma) which contains PHA, supplemented with IL-2 (100 units/mL) (R&D Systems, Minneapolis, Minn.), to generate PHA Blasts. To test IL-23 aptamers, the PHA Blasts were washed twice with 1×PBS, then serum starved for four hours in RPMI, 0.20% FBS. After serum starvation, approximately 2 million cells were aliquotted into appropriately labeled eppendorf tubes. hIL-23 at a final constant concentration of 3 ng/mL (R&D Systems, Minneapolis, Minn.) was combined with a dilution series of various IL-23 aptamers as described in Example 1, and the cytokine/aptamer mixture was added to the aliquotted cells in a final volume of 100 μl and incubated at 37° C. for 10-12 minutes. The incubation reaction was stopped by adding 1 mL of ice-cold PBS with 1.5 mM Na₃VO₄. Cell lysates were made using the lysis buffer provided by the TransAM™ STAT 3 assay following the manufacturer's instructions. FIG. 20 depicts a flow summary of the protocol used for the cell based assay.
Full length clones from the rRfY selection described in Example 1A, and select minimized rRfY clones that were described in Example 2A. 1, were tested using the TransAM™ STAT3 activation assay. Table 34 summarizes the cell based assay data for IL-23 full length aptamers generated from the rRfY selections described in Example 1A. 1, each compared to the activity of their respective parent (full length) clone.

Binder	IC50
B19	250 nM

What follows are binders tested against T1, IL-23 (human, p19/p40 heterodimer) (assay: filter; +tRNA). Conditions: tags: R&D Systems, carrier free.

Binder	Kd
B25	93 nM
B26	106 nM
B27	50 nM

Each binder was assayed against T1, IL-23 (human, p19/p40 heterodimer) (assay: filter; SHMCK, tRNA). Conditions: tags: R&D Systems, carrier free.
Method in brief: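 Trace ³²P-labeled RNA incubated with a dilution series of h-IL-23 for 30 min at room temperature in 1×SHMCK (pH 7.4, 1 mM MgCl₂, 1 mM CaCl₂) plus 0.1 mg/mL tRNA. Bound RNA captured on nitrocellulose, free RNA on nylon; quantified by phosphorimaging. Clone screens used single points of 75, 100 or 200 nM IL-23 or IL-12.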

Binder	Kd
B12	461 nM
B13	218 nM
B14	424 nM
B15	57.7 nM
B16	16.6 nM
B17	256 nM
B18	77.8 nM
B19	105 nM
B20	157 nM
B21	80.3 nM
B22	97.9 nM
B23	180 nM
B24	111 nM
